Results as given in paper doi:10.1101/2024.03.19.585775, “Septin filament assembly assist the lateral organization of membranes” (bioRxiv, 2024).
“And” between values parts separate entries of the source, which are not always exact repeats. Equal entries are not always repeated.

B1: wild-type septin-GFP hetero-octamer (Cdc11-Cdc12-Cdc3-Cdc10-Cdc10-Cdc3-Cdc12-Cdc11) (complex, S. cerevisiae)
chain 1: MSGIIDASSALRKRKHLKRGITFTVMIVGQSGSGRSTFINTLCGQQVVDTSTTILLPTDTSTEIDLQLREETVELEDDEGVKIQLNIIDTPGFGDSLDNSPSFEIISDYIRHQYDEILLEESRVRRNPRFKDGRVHCCLYLINPTGHGLKEIDVEFIRQLGSLVNIIPVISKSDSLTRDELKLNKKLIMEDIDRWNLPIYNFPFDEDEISDEDYETNMYLRTLLPFAIIGSNEVYEMGGDVGTIRGRKYPWGILDVEDSSISDFVILRNALLISHLHDLKNYTHEILYERYRTEALSGESVAAESIRPNLTKLNGSSSSSTTTRRNTNPFKQSNNINNDVLNPASDMHGQSTGENNETYMTREEQIRLEEERLKAFEERVQQELLLKRQELLQREKELREIEARLEKEAKIKQEE
chain 2: MSAATATAAPVPPPVGISNLPNQRYKIVNEEGGTFTVMLCGESGLGKTTFINTLFQTVLKRADGQQHRQEPIRKTVEIDITRALLEEKHFELRVNVIDTPGFGDNVNNNKAWQPLVDFIDDQHDSYMRQEQQPYRTKKFDLRVHAVLYFIRPTGHGLKPIDIETMKRLSTRANLIPVIAKADTLTAQELQQFKSRIRQVIEAQEIRIFTPPLDADSKEDAKSGSNPDSAAVEHARQLIEAMPFAIVGSEKKFDNGQGTQVVARKYPWGLVEIENDSHCDFRKLRALLLRTYLLDLISTTQEMHYETYRRLRLEGHENTGEGNEDFTLPAIAPARKLSHNPRYKEEENALKKYFTDQVKAEEQRFRQWEQNIVNERIRLNGDLEEIQGKVKKLEEQVKSLQVKKSHLK
chain 3: MSLKEEQVSIKQDPEQEERQHDQFNDVQIKQESQDHDGVDSQYTNGTQNDDSERFEAAESDVKVEPGLGMGITSSQSEKGQVLPDQPEIKFIRRQINGYVGFANLPKQWHRRSIKNGFSFNLLCVGPDGIGKTTLMKTLFNNDDIEANLVKDYEEELANDQEEEEGQGEGHENQSQEQRHKVKIKSYESVIEENGVKLNLNVIDTEGFGDFLNNDQKSWDPIIKEIDSRFDQYLDAENKINRHSINDKRIHACLYFIEPTGHYLKPLDLKFMQSVYEKCNLIPVIAKSDILTDEEILSFKKTIMNQLIQSNIELFKPPIYSNDDAENSHLSERLFSSLPYAVIGSNDIVENYSGNQVRGRSYPWGVIEVDNDNHSDFNLLKNLLIKQFMEELKERTSKILYENYRSSKLAKLGIKQDNSVFKEFDPISKQQEEKTLHEAKLAKLEIEMKTVFQQKVSEKEKKLQKSETELFARHKEMKEKLTKQLKALEDKKKQLELSINSASPNVNHSPVPTKKKGFLR
chain 4: MDPLSSVQPASYVGFDTITNQIEHRLLKKGFQFNIMVVGQSGLGKSTLINTLFASHLIDSATGDDISALPVTKTTEMKISTHTLVEDRVRLNINVIDTPGFGDFIDNSKAWEPIVKYIKEQHSQYLRKELTAQRERFITDTRVHAILYFLQPNGKELSRLDVEALKRLTEIANVIPVIGKSDTLTLDERTEFRELIQNEFEKYNFKIYPYDSEELTDEELELNRSVRSIIPFAVVGSENEIEINGETFRGRKTRWSAINVEDINQCDFVYLREFLIRTHLQDLIETTSYIHYEGFRARQLIALKENANSRSSAHMSSNAIQR
notes: Cdc11, septin of S. cerevisiae; Cdc12, septin of S. cerevisiae; Cdc3, septin of S. cerevisiae; Cdc10, septin of S. cerevisiae; Tag ends are read from the printed construct names MBP-Cdc12/(6xHis)Cdc3-GFP; The purified complex is named without MBP; also called GFP-tagged septin octamers; wild-type septin-GFP complexes; source: E. coli BL21 (DE3) Rosetta, co-expressed from two plasmids, purified …
B2: septin-GFP hetero-octamer containing ΔAH-Cdc12 (C-terminal deletion of Cdc12 residues 390-407) (complex, S. cerevisiae)
chain 1: B1 chain 1
chain 2: MSAATATAAPVPPPVGISNLPNQRYKIVNEEGGTFTVMLCGESGLGKTTFINTLFQTVLKRADGQQHRQEPIRKTVEIDITRALLEEKHFELRVNVIDTPGFGDNVNNNKAWQPLVDFIDDQHDSYMRQEQQPYRTKKFDLRVHAVLYFIRPTGHGLKPIDIETMKRLSTRANLIPVIAKADTLTAQELQQFKSRIRQVIEAQEIRIFTPPLDADSKEDAKSGSNPDSAAVEHARQLIEAMPFAIVGSEKKFDNGQGTQVVARKYPWGLVEIENDSHCDFRKLRALLLRTYLLDLISTTQEMHYETYRRLRLEGHENTGEGNEDFTLPAIAPARKLSHNPRYKEEENALKKYFTDQVKAEEQRFRQWEQNIVNERIRLNGDLEEIQGKV
chain 3: B1 chain 3
chain 4: B1 chain 4
notes: Cdc11, septin of S. cerevisiae; Cdc12, septin of S. cerevisiae; Cdc3, septin of S. cerevisiae; Cdc10, septin of S. cerevisiae; also called ΔAH-Cdc12 mutant; ΔAH mutant; source: E. coli BL21 (DE3) Rosetta, co-expressed, purified (amylose resin, Ni-NTA-agarose), same protocol as wild type; not shown: GFP, C-terminal, kept; copies: 2 + 2 + 2 + 2
B3: septin-GFP hetero-octamer containing ΔCTE-Cdc12 (deletion of the C-terminal extension of Cdc12, residues 339-407) (complex, S. cerevisiae)
chain 1: B1 chain 1
chain 2: MSAATATAAPVPPPVGISNLPNQRYKIVNEEGGTFTVMLCGESGLGKTTFINTLFQTVLKRADGQQHRQEPIRKTVEIDITRALLEEKHFELRVNVIDTPGFGDNVNNNKAWQPLVDFIDDQHDSYMRQEQQPYRTKKFDLRVHAVLYFIRPTGHGLKPIDIETMKRLSTRANLIPVIAKADTLTAQELQQFKSRIRQVIEAQEIRIFTPPLDADSKEDAKSGSNPDSAAVEHARQLIEAMPFAIVGSEKKFDNGQGTQVVARKYPWGLVEIENDSHCDFRKLRALLLRTYLLDLISTTQEMHYETYRRLRLEGHENTGEGNEDFTLPAIAPARKLSH
chain 3: B1 chain 3
chain 4: B1 chain 4
notes: Cdc11, septin of S. cerevisiae; Cdc12, septin of S. cerevisiae; Cdc3, septin of S. cerevisiae; Cdc10, septin of S. cerevisiae; also called ΔCTE-Cdc12 mutant; Cdc12 mutants; source: E. coli BL21 (DE3) Rosetta, co-expressed, purified (amylose resin, Ni-NTA-agarose), same protocol as wild type; not shown: GFP, C-terminal, kept; copies: 2 + 2 + 2 + 2

What was measured:
[1] = target: the molecule itself; assay: negative-stain transmission electron microscopy; octamers to filaments; 100 nM (legend; methods: 0.005 mg/ml) GFP-tagged septin hetero-octamers on lipid monolayers of 77.5% Egg-PC, 20% Liver-PI, 2.5% Brain-PI(4,5)P2; 20 mM Tris-HCl pH 8, 2 mM MgCl2, 400 µM GTP, 150 mM NaCl; overnight at 4 °C; 2% uranyl acetate
[2] = target: the molecule itself; assay: atomic force microscopy; octamers to filaments; 5 nM septin-GFP incubated overnight on 2.5% mol PI(4,5)P2 supported lipid bilayers; imaged at room temperature in 20 mM Tris-HCl pH 8, 2 mM MgCl2, 150 mM NaCl

Protein | stoichiometry N [1] | stoichiometry N [2]
B1 | 2 octamers and 3 octamers | 5 octamers
B2 | ~4 octamers | 
B3 | ~4 octamers | 
